Patent US20220089765A1, “CD31 COMPETITORS AND USES THEREOF” (ENCEFA, priority 2019, published 2022)

Tested on: dopaminergic neurons of the right substantia nigra pars compacta
Experiment: 6-OHDA mouse model, number of DA (TH+) neurons
Format: in vivo, mice
Description: We aimed at determining whether B08 or D06 anti-CD38 antibodies were neuroprotective in vivo against neurodegeneration induced by oxidative stress. Mouse were administered with 6-hydroxydopamine (6-OHDA) in the right striatum. Since 6-OHDA is an analogue of dopamine, it is transported in dopaminergic neurons through the dopamine transporter, resulting in a specific degeneration and loss of dopaminergic neurons of the right substantia nigra pars compacta. It has been extensively used as a test system for novel symptomatic agents and for assessment of neuroprotective and neurorepair strategies (Galindo et al., 2014. In Kostrzewa (Ed.), Handbook of neurotoxicity (1st Ed., pp. 639-651). New York: Springer-Verlag). Since 6-OHDA is injected unilaterally in the right striatum, left striatum remains unaffected and each mouse is its own control.
Two in vivo mouse models were used: the 6-OHDA mouse model and the MPTP mouse model. For the 6-OHDA mouse model, the intoxication protocol was based on the unilateral stereotaxic intrastriatal injection of 6-OHDA in the right striatum. Intracerebral or intravenous injections of treatments were made either the day before the surgical stereotaxic procedure, concomitantly with 6-OHDA during the surgical stereotaxic procedure, or two days after 6-OHDA injection. Animals were sacrificed 8 days after the surgical stereotaxic procedure.
For unilateral 6-OHDA mouse model, animals were anesthetized using Chloral hydrate (400 mg/kg, i.p.) and placed into a stereotactic frame adapted to mice. The injection was performed using a Hamilton syringe at the following coordinates: AP: […], ML: […], DV: […] (corresponding to the atlas of Franklin and Paxinos, 1997). A total volume of 2.5 μL containing or not 5 μg of 6-OHDA diluted in PBS in the presence or the absence of test treatments was injected. The needle was left in place for 10 min after the injection before retraction.
Mice were sacrificed by cervical dislocation, and beheaded to collect brain and blood samples. The brain was fixed in a paraformaldehyde solution (4%) during 1 day before being soaked in sucrose (30%) during 2 days and then froze at −80° C. for further analysis.
Each brain was sliced using a freezing microtome at −30° C. The thickness of each slice was 20 μm. The slicing was done around the substantia nigra (80 slices from slice 51 to 63 according to Allen Mouse Brain).
Slices were then washed out in PBS and incubated with anti-Tyrosine Hydroxylase to stain dopaminergic neurons (Abcam®) during 2 days, at 4° C., with agitation. Slices were incubated with corresponding secondary antibody in the presence of DAPI (Sigma Aldrich®) to stain cell's nuclei during 2 hours at room temperature, and mounted on gelatin-coated slides.
The slices were imaged using a Nikon TE2000 U equipped with a Hamamatsu ORCE-ER camera or with a Zeiss Axio Vert.A1 equipped with an axiocam 503 mono camera. Image analysis was done using Image J software or Zen (Zeiss®).

B1: Clone B08: anti-human CD38 antibody, HCVR SEQ ID NO: 33 and LCVR SEQ ID NO: 39 (antibody, V domains shown)
VH: EVQLVESGGSLVKPGGSLRLSCAASGFTFSNYYMNWVRQAPGKGLEWISSISGSSRSIYYADFVKGRFTISRDNAKNSLYLQMNSLRAEDTAVYYCVRSSDDYYYDYGMDVWGRGTLVTVSS
VL: QSVLTQPASVSGSPGQSITISCAGTSSDVGGSYSVSWYQQHPGKAPKLMIYDDSNRPSGVSNRFSGSKSGNTASLTISGLQAEDEADYYCSSYTDYSTRVFGGGTKL
modifications: HCVR B08; LCVR B08
Q: For B1, which “protection of dopaminergic neurons of the right substantia nigra pars compacta” value (0.1 mg/kg injected intracerebrally concomitantly with 6-OHDA) is on record?
A: statistically significantly protected

Q: What about the “neuroprotective effect in 6-OHDA model” value (15 mg/kg iv one day before 6-OHDA injection) of the same molecule?
A: neuroprotective effect was also observed

Q: And the “neuroprotective activity in 6-OHDA model when degeneration is ongoing” value (15 mg/kg iv two days after 6-OHDA injection)?
A: strong neuroprotective activity
